Laboratory results as given in US20230257444A1, “FUSION PROTEIN AND COMBINATIONS THEREOF” (Agency for Science, Technology and Research, priority 2020, published 2023).
Read-outs that look alike come from different tables or passages of the source.

Experiments:
FcRn = biological target: T1, FcRn (Homo sapiens, UniProt P55899); test: Surface plasmon resonance: binding to immobilised Fc receptor; conditions: SPR
T1 construct: soluble ectodomains of FcR from R&D Systems; purchased R&D Systems 8639-FC-050
Excerpt: (§1) A BIAcore T200 SPR Biosensors (GE Healthcare) was used to assay the interaction of soluble ectodomains of FcR from R&D Systems with hDectin1-Fc and IgG1. Amine coupling via N-hydroxysuccinimide ester was formed on a CM5 sensor chip surface according to a procedure recommended by the manufacturer. Ectodomains were immobilized at acidic pH, resulting in the following densities: FcγRI (#1257-FC-050): 1919 RU, FcγRIIa (#1330-CD-050/CF):1766 RU, FcγRIIb/c (#1875-CD-050): 1972 RU, FcγRIIIa (#4325-FC-050): 2275 RU, FcγRIIIb (#1597-FC-050/CF): 2393 RU, FcRn (#8639-FC-050): 2836. A range of hDectin1-Fc/IgG1 concentrations was injected into flow cells at a flow rate of […], with a contact and dissociation time of 300 and 900 seconds, respectively. After each assay cycle, the sensor chip surface was regenerated using 10 mM NaOH. Binding response was recorded as resonance units (RU; 1 RU=1 pg/mm^2) continuously, with background binding automatically subtracted. Due to the polyclonal nature of the hDectin1-Fc/IgG1 recombinant proteins used, kinetic constants (kon, koff, t1/2) were not determined, and the KD was calculated by analyzing the concentration-dependence of the steady-state signal reached at the end of the injection using BIA evaluation version 3 software (GE Healthcare) and Scrubber version 2 software (BioLogic Software, Campbell, Australia). The steady-state response was plotted against the concentration of hDectin1-Fc/IgG1 and fitted using Origin software.
(§2) Antibody mediated immune activation depends on the strength of binding and affinity of the Fc to the various Fcγ receptors. Binding to the neonatal receptor FcRn is also important for the half-life in serum and the transcytosis across endothelial cells into various tissues. Surface plasmon resonance was used to evaluate the binding of the Immunoglobulin G's Fc of hDectin1-Fc to the various Fc receptors (FcγRI, FcγRIIa, FcγRIIb, FcγRIIIa, FcγRIIIb and FcRn) present on immune cells by flowing free hDectin1-Fc of various concentrations over immobilised Fc receptors (FIG. 11A-F). […] High affinity FcγRI(CD64) is expressed on macrophages, monocytes and neutrophils and low affinity FcγRIIIa (CD16a) is expressed on natural killer cells, monocytes, macrophages and neutrophils. Both CD64 and CD16a activating receptors have Immunoreceptor Tyrosine based Activation Motif (ITAM) signalling domain. FcγRI strongly binds IgG opsonized targets to trigger phagocytosis and a proinflammatory response of TNFα, IFNγ and production of oxidative species. FcγRIIIa likewise activate degranulation, phagocytosis, and oxidative burst.

FcγRI = biological target: T2, FcγRI (Homo sapiens, UniProt P12314); test: as above; conditions: SPR
T2 construct: soluble ectodomains of FcR from R&D Systems; purchased R&D Systems 1257-FC-050
Excerpt: as §1, §2

FcγRIIIa = biological target: T3, FcγRIIIa (Homo sapiens, UniProt P08637, F176V); test: as above; conditions: SPR
T3 construct: soluble ectodomains of FcR from R&D Systems; purchased R&D Systems 4325-FC-050
Excerpt: as §1, §2

FcγRIIIb = biological target: T4, FcγRIIIb (Homo sapiens, UniProt O75015); test: as above; conditions: SPR, steady state
T4 construct: soluble ectodomains of FcR from R&D Systems; purchased R&D Systems 1597-FC-050/CF
Excerpt: as §1, §2

FcγRIIb = biological target: T5, FcγRIIb (Homo sapiens, UniProt P31994); test: as above; conditions: SPR, steady state
T5 construct: soluble ectodomains of FcR from R&D Systems; purchased R&D Systems 1875-CD-050
T5 sequence (P31994 43-217 limits assumed): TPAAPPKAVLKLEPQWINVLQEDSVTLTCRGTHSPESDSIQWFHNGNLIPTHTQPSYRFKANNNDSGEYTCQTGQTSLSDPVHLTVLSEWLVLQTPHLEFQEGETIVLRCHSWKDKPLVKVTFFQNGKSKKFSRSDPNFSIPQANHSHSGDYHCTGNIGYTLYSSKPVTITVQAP
Excerpt: as §1, §2

[1] = parameters: species or system Balb/c mice; conditions: mouse, in vivo, ip
Experimental: 9 week old female Balb/c mice (InVivos, Singapore) were injected intraperitoneally with 0.5, 1, 2 or 4 mg hDectin1-Fc in groups of 3. Blood was sampled from the tail at time 0, 5, 10, 15, 30 mins and 1, 2, 4, 8 hours thereafter followed by daily sampling with Microvette® ([…], Nümbrecht, Germany) for 20 days. The respective blood samples were allowed to clot and centrifuged at 2000 g and the blood serum collected. The blood serum was diluted accordingly and the concentration of hDectin1-Fc was tested with Human IgG ELISA Antibody Pair Kit and developed with pNPP ELISA Substrate ([…] Technologies, Vancouver, Canada). The plates were read on PLATE reader and the data analysed for hDectin1-Fc pharmacokinetic parameters with open source Microsoft Excel add-in PKSolver (China Pharmaceutical University, Nanjing, China).
The pharmacokinetic parameters of hDectin1-Fc at different doses (4 mg, 2 mg, 1 mg and 0.5 mg) were determined by administering a single bolus intraperitoneal injection and sampling blood serum daily (FIG. 14). The daily concentration over 20 days was measured by ELISA and the results analysed with PKSolver to determine the pharmacokinetic parameters (Table 2). […] The lowest dose of 0.5 mg has a half-life and MRT lower than the 2 mg and 1 mg dose and its peak concentration (Cmax) is at 10 hours instead of 2 hours like the other doses. This observed outcome for the 0.5 mg dose is likely to arise from the slow transfer of hDectin1-Fc from the intraperitoneal space of the mouse into its bloodstream due to the lower concentration gradient and stronger role of excretion over distribution. The duration of the MRT and the half-life is a reflection of the presence of the protective effects of hDectin1-Fc in the body of the mice. The optimal dose with the longest MRT and half-life is approximately 1 mg. The general take away from the pharmacokinetic study are: (i) high doses result in rapid excretion of the drug, (ii) peak concentration occurs at 2 hours (iii) lower doses have a longer half-life and mean residence time appropriate for passive immunization.

T1 sequence (P55899 24-297 limits assumed): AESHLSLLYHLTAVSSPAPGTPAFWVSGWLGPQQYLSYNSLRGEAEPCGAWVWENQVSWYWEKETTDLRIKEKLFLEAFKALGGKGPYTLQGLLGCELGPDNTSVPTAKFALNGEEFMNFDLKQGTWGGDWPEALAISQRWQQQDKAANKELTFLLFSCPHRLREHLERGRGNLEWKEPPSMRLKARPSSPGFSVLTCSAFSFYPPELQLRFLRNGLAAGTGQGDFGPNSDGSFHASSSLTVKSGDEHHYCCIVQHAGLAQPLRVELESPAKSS
T1 sequence (P61769 21-119 partner): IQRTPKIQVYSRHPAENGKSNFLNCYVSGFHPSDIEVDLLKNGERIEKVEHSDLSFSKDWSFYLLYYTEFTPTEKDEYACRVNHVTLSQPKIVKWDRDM
T2 sequence (P12314 16-292 limits assumed): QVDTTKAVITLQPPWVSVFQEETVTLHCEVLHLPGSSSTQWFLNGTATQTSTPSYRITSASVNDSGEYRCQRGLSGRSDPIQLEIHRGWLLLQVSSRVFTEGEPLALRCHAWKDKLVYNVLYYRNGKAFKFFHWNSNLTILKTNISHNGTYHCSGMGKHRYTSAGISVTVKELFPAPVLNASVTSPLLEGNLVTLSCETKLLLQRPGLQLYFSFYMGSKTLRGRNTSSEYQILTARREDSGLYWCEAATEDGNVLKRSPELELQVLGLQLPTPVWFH
T3 sequence (P08637 17-208 F176V limits assumed): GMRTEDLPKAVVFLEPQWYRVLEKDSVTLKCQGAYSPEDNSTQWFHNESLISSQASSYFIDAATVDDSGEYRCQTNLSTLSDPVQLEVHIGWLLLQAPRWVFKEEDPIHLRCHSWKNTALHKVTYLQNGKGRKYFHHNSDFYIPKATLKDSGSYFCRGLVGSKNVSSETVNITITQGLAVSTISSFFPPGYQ
T4 sequence (O75015 17-200 limits assumed): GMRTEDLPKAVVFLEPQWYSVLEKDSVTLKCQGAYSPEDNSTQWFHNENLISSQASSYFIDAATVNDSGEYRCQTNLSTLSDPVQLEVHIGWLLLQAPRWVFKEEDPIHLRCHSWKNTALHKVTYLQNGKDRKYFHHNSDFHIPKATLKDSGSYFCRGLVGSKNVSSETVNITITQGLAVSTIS

For “hDectin1-Fc: soluble dimeric fusion protein: human Dectin-1 receptor polypeptide (aa 73-247) fused to human IgG1 Fc via hinge; SEQ ID NO: 5”, the “KD for FcRn compared with Herceptin” value (FcRn) was “moderately weaker binding”, the “binding to FcRn (Binding Constant KD screen)” value (FcRn; steady state) was “able to interact with and bind to” and the “KD for FcγRI compared with Herceptin” value (FcγRI) was “moderately weaker binding”. For the same substance, the “binding to FcγRI (Binding Constant KD screen)” value (FcγRI; steady state) was “able to interact with and bind to”, the “KD for FcγRIIIa compared with Herceptin” value (FcγRIIIa) was “moderately weaker binding” and the “binding to FcγRIIIa (Binding Constant KD screen)” value (FcγRIIIa; steady state) was “able to interact with and bind to”. The “binding to FcγRIIIb (Binding Constant KD screen)” value (FcγRIIIb) was “bind to FcγRI, FcγRIIIa and FcRn only”, the “binding to FcγRIIb (Binding Constant KD screen)” value (FcγRIIb) was “bind to FcγRI, FcγRIIIa and FcRn only” and the Cl/F ([1]; 0.5 mg) was 0.0066 (μg)/(μg/ml)/h. The Cmax ([1]; 0.5 mg) was 330 µg/mL, the Tmax ([1]; 0.5 mg) was 10 h and the Vz/F ([1]; 0.5 mg) was 0.9495 (μg)/(μg/ml). The t½ ([1]; 0.5 mg) was 100 h, the Cl/F ([1]; 1 mg) was 0.0163 (μg)/(μg/ml)/h and the Cmax ([1]; 1 mg) was 294 µg/mL. For the same substance, the Tmax ([1]; 1 mg) was 2 h, the Vz/F ([1]; 1 mg) was 3.4254 (μg)/(μg/ml) and the t½ ([1]; 1 mg) was 146 h. For the same substance, the Cl/F ([1]; 2 mg) was 0.0095 (μg)/(μg/ml)/h, the Cmax ([1]; 2 mg) was 1039 µg/mL and the Tmax ([1]; 2 mg) was 2 h. The Vz/F ([1]; 2 mg) was 2.1489 (μg)/(μg/ml), the t½ ([1]; 2 mg) was 156 h and the Cl/F ([1]; 4 mg) was 0.0314 (μg)/(μg/ml)/h. The Tmax ([1]; 4 mg) was 2 h, the Vz/F ([1]; 4 mg) was 3.5008 (μg)/(μg/ml) and the t½ ([1]; 4 mg) was 77 h.
